In publication PMC3271085, “Enhancement of Chemokine Function as an Immunomodulatory Strategy Employed by Human Herpesviruses” (PLoS Pathogens, 2012):

B1: human CCL18 (ligand)
chain: AQVGTNKELCCLVYTSWQIPQKFIVDYSETSPQCPKPGVILLTKRGRQICADPNKKWVQKYISDLKLNA
notes: also called hCCL18; source: commercially available (Protocol S2)
B2: human CCL22 (ligand)
chain: GPYGANMEDSVCCRDYVRYRLPLRVVKHFYWTSDSCPRPGVVLLTFRDKEICADPRVPWVKMILNKLSQ
B3: human CXCL14 (ligand)
chain: SKCKCSRKGPKIRYSDVKKLEMKPKYPHCEEKMVIITTKSVSRYRGQEHCLHPKLQSTKRFIKWYNAWNEKRRVYEE
notes: also called hCXCL14; source: commercially available (Protocol S2)
B4: human CCL28 (ligand)
chain: SEAILPIASSCCTEVSHHISRRLLERVNMCRIQRADGDCDLAAVILHVKRRRICVSPHNHTVKQWMKVQAAKKNGKGNVCHRKKHHGKRNSNRAHQGKHETYGHKTPY
notes: also called hCCL28; source: commercially available (Protocol S2)
B5: human CXCL11 (ligand)
chain: FPMFKRGRCLCIGPGVKAVKVADIEKASIMYPSNNCDKIEVIITLKENKGQRCLNPKSKQARLIIKKVERKNF
notes: also called hCXCL11; source: commercially available (Protocol S2)
B6: human CXCL9 (ligand)
chain: TPVVRKGRCSCISTNQGTIHLQSLKDLKQFAPSPSCEKIEIIATLKNGVQTCLNPDSADVKELIKKWEKQVSQKKKQKNGKKHQKKKVLKVRKSQRSRQKKTT
notes: also called hCXCL9; source: commercially available (Protocol S2)
B7: human CXCL13 (ligand)
chain: VLEVYYTSLRCRCVQESSVFIPRRFIDRIQILPRGNGCPRKEIIVWKKNKSIVCVDPQAEWIQRMMEVLRKRSSSTLPVPVFKRKIP
notes: also called hCXCL13; source: commercially available (Protocol S2)

target: soluble, secreted form of HSV-2 glycoprotein G (SgG2) (herpes simplex virus type 2) (UniProt P13290); assay: SPR; Biacore X; SgG1 or SgG2 amine-coupled to CM5 chips (dialysed against acetate buffer pH 5.0 for SgG1, pH 5.5 for SgG2); chemokines injected; screening at 100 nM and kinetic conditions as in ref. 16; Biaevaluation 3.2
Sequence (P13290 23-699): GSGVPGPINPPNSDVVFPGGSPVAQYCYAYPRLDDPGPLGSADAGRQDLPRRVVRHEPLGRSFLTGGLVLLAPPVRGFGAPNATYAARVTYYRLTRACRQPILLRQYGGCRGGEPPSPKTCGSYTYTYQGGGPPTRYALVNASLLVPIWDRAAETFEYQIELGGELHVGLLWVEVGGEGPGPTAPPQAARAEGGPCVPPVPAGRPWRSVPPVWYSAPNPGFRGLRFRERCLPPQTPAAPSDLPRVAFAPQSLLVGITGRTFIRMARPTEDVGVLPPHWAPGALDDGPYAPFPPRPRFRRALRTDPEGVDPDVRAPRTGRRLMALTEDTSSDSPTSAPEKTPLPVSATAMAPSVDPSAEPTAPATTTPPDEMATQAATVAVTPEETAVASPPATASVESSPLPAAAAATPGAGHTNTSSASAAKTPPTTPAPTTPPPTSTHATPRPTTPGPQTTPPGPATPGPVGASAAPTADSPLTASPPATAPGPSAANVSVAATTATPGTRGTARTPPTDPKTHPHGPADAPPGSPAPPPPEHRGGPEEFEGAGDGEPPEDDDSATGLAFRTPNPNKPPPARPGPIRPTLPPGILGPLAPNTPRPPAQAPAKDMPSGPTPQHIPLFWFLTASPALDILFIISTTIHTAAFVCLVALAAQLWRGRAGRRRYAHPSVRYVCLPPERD

Point of comparison: B6, Kd 12.3 nM. Against it:
- human CXCL10 (from UniProt P02778 22-98) (ligand) — 2.2-fold lower, 5.5 nM
- human CXCL12β (from UniProt P48061 22-93) (ligand) — 5.6-fold lower, 2.2 nM
- human CCL25 (from UniProt O15444 24-150) (ligand) — 7.7-fold lower, 1.6 nM
- human CCL26 (from UniProt Q9Y258 24-94) (ligand) — 7.2-fold lower, 1.72 nM
- B1 — 2.3-fold higher, 28 nM
- B2 — 2.4-fold lower, 5.22 nM
- B3 — 2.9-fold lower, 4.3 nM
- B4 — 3.8-fold lower, 3.2 nM
- B5 — 2.1-fold lower, 6 nM
- B7 — 2.9-fold lower, 4.3 nM
